The target of this assay is T1, AspN-treated GDF11 (human, UniProt O95390 60-114; O95390 122-407, N-linked glycan at Asn-94, biotinylated through the glycan (Octet)).
T1 construct: Full length GDF11 (ACE378) cleaved with endoproteinase AspN only; Glycopeptide 60-114 stays non-covalently associated with fragment 122-407, about 100 kDa by SEC; Minor fragments 60-117, 128-407, 133-407 and 25-114/117 were also detected; also called AspN digested GDF11; GDF11 Asp-N biotin sample
T1 sequence (peptide): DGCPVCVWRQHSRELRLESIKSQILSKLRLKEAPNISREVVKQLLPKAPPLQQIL
T1 sequence: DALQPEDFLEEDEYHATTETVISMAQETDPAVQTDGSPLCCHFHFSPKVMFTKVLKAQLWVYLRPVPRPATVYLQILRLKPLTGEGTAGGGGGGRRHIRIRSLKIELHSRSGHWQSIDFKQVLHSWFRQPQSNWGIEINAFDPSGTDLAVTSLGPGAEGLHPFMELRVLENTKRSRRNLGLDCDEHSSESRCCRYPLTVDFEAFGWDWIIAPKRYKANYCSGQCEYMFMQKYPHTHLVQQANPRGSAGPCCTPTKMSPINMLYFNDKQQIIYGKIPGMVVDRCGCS
Briefly: Octet, biotinylated GDF11 sample captured on Streptavidin sensor, receptor-Fc in solution. On the procedure: Following this treatment, GDF11 peptide 60-112/114 was in the supernatant and the rest of the protein precipitated and was in the pellet fraction. The specificity of labeling of GDF11 with biotin hydrazide was confirmed by Western blotting using Streptavidin Horseradish peroxidase for detection. Only full length GDF11 and glycopeptide 60-114 were detected and not the major fragments 122-407 or 299-407. Octet Binding Studies. Binding characteristics of the biotinylated samples were evaluated by Octet on an Octet RED System (FortéBio™, Menlo Park, Calif.) using Dip and Read™ Streptavidin (SA) Biosensors (FortéBio™). Samples were prepared in 5 mM NaH₂PO₄ pH 6.0, 150 mM NaCl, 0.005% Tween-20. […] The ability of biotinylated AspN/furin GDF11 to bind Type I and II receptors was also assessed by Octet using the same loading conditions, followed by treatment of the receptors at 10 μg/mL. […] The tips were washed for 1 min and dissociation monitored for 30 min in the presence of 20 μM free biotin. For secondary binding studies with the receptors, the tips were loaded with biotinylated GDF11 and controls, and washed as described above, then the receptor samples were loaded for 15 min and dissociation monitored for 5 min.
The binding characteristics of the GDF11 peptide 60-112/114 for mature GDF11 residues 299-407 and for AspN fragment residues 122-407 were assessed using an Octet Red system. […]
Background: In BLI a coated tip is dipped into the sample, and binding shifts an interference pattern.

B1: Recombinant Human Activin RIB (ALK-4)-Fc chimeric protein (Fc fusion, UniProt P36896 24-126, looked up)
chain: SGPRGVQALLCACTSCLQANYTCETDGACMVSIFNLDGMEHHVRTCIPKVELVPAGKPFYCLSSEDLRNTHCCYTDYCNRIDLRVPSGHLKEPEHPSMWGPVE
notes: Bought from R&D systems; also called Activin RIB-Fc; Type I receptor; Fc part of the bought chimera not given
Regarding B1, the binding result is “no binding”.

For the origin of these results see patent US20220348623A1 (Biogen, published 2022).
